Tested on: HEK293 cells
Assay type: cell-based, human
Conditions: luminescence from secreted Gluc in supernatant 24 hours after transfection of HEK293 cells; circular RNA encoding Gluc with the named IRES (UTR truncated to 675 nt)

B1: Rhimavirus A (nucleic acid)
DNA: CGAATTCCGGACATCTCCTTTCGGGGGCGAGCGTCACCGTGCCCCTCATGGAGGCAACTGTGCCTCTAATCGGTGACCCACTGAGAAAATTTTCTTTCTACGTGGCTAAACAATGCAACTTTATAATAACACAAATTTAATGCTTAATCTTAACACCAAAGATTTGAACATATGTTTGGAAAGTGGCACACTTCAAACATTGCATAGTTGCTAGGGGTGAAGTCCCTTTAAGGGGTTGCAGAGGATCTTTCCTCTTTATGAGCGGCTAGGAGTATCTTCTTGATATTATGTGGTCGTGCAACTCACTTCCCAGATGTATGACGGTGTACTAAGCGATTGGAACTAGTCATAACCTCTTTGAATTTTGGTATTGCGAGTCTAGCAGGGGGATATTTACCGCTAAAGGGTGACACACTCGTGAGGGTGGCCTTTGGTGTGTGTATATTTATTCCGCCCATCTTGCATGGGGTGCTAAAATTCTAATGCTGTGAAATAACCATTTTCTGAATACATTCTCTACATTTGGAGTCAAATATGAGGAATGCCACTCAGGTACCCTTGACATGATCTTGGATCTGAGAGTGGGCTAATTATCTAATTATTTGGCGACTTTCTAAAATCTTCTGTTTTTAGTGGTGACAATTTATGGTTATAAA
Expression: 8.42E+05

B2: Ball python nidovirus (nucleic acid)
DNA: CCCCTTCACCCATAGGCACTAGGAGAACAGGATAACCCCTAACGGGGCATCCTGCCTGTGACCTTTCAGATTCGCTAGTTAGATATCTTCACAGACTCTGCTAGGCTTCTGACCCAGTCCGTTCCCAAAGTCCGTTACCGCCCGAGTAGCGCTTAGGCGCGAAAGGGACGGAAGTACCTCCAGTAAGCGAAAGCTGAAGTAAGGGAAATACGGCAAGACTAACTTGTTAGTCTTACAGTGTGGATAACCTGGTAGTTATCCCCGACAAGAGACCTGACTCGATGTGAAAACATCCAACTAGGTTGGCTTCAAACTAGCTACAGGCAGGATATCCCCCAACGGGGCCTCCAAGGAATCGAGAACCAACCCTCATTCCACGTCTGTAGTAAGCAAAAACAGGGGCGATCTTCACCGACACCTCTCACCACAGAGCACACCAACCTCTGTGAAGCCAATTTCCTCGTCCAAGGACAGGTTATTGAGGGTCAACTTTCTTCCGACCAGAAGAAGGGATTTCCTACCAAAAGAAAAACCAAATCCACCAACACCACAAGGTAAAACAACAACTTGTGAAGCCAATACTTAGTCAAAGACTAACTATTGAGGGTCAACTTTCTCTTCAATAGAGAAGGGATTTCCTGGTAAAACAAATAACAACAACTAACATCAGCAACT
modifications: Ball python nidovirus
Expression: 8.25E+04

B3: Bat sapelovirus (nucleic acid, listed as Sapelovirus sp.)
DNA: GACAGGTGTTTTGGAGGGCGGATGACGATATCTGGCTGGCCACCAGGGAATAACGGCAAATGTCTGATCATACGGTTCACAAGTCTACCGGCGATAGTGGTTCAACACCATGTGTAGCAGGGATTCTTGCGTATGTGAAGGCGACAGTGC
Expression: 8.05E+04

B4: Bat Picornavirus 2 (nucleic acid)
DNA: GGGTTTTACGAAACCCGTATACACCAGACCTTTTCTCCCCTCCCCCTCCACCTACCTTTTCCCCCTCTTTGGACCGAAACAAGGACACGTAAGTGGAAACGCGATTTTATATGTGGTTGGCCACCACGGAATAACGGCAATTGTCTACATGTGGGAAGTGCAACCTCCCTAGCCGATAACCCCTGACCGGGTGTGTAGGATAGGAAAGGTGCCCACTGTGGGCGACAGGTTATGGTAGAGTGGATACCTAGCCAGGGGCAATGGGACTGCTTTGCATATCCCTAATGAAGTATTGAGATTTCTCTGCTCATTACCCGGTGATGGTTGTGTGGGGGGGGCCCCATACACTAGATCCATACTGCCTGATAGGGTCGCGGCTGGCCGACCATAACCTGTATAGTCAGTTGAATTCAGCCAAG
Expression: 7.99E+07

B5: Bat Picornavirus 1 (nucleic acid)
DNA: GAAACCCGTATACACCGGACCTTTTCTCCCCTCCCTCTCCACTTACCTTTTTCCCCTCTTCGGCATGAAACAAGGATTATTCAAGTGGAAACGCGATTTAATATGCGGCTGGCCACCGCGGAATAACGGCAATTGTGTATCTGCTGGAAGCCAAGCCTGCCTAGCCGATAGCCCTTGACCGGGTGTGTAGGATAGCCCAGGAACCAGCAATACGCGACAGGTTATGGTAGAGTAGATACCTAGCCAGGGGCAATGGGACTGCATTGCATATCCCTAATGAACCATTGAGATTTCTCTGGTCATTACCCGGTGATGGTTACTAGAGGGGGGCCTCTAGTACTAGATCTATACTGCCTGATAGGGTCGCGGCTGGCCGACCATGACCTGTATAGTCAGTTGATTTGAGCAAT
Expression: 1.85E+07

B6: Bat Iflavirus (nucleic acid, listed as Iflavirus sp.)
DNA: ACGAATCGGTATACGCTTCGGTACCTATTGTTGCAAGTTCGTTCCCTATTTTCGATTTGCCTGCCCGAATTTGACTCAAACAATTGTGACATACTATGTCTCTGTTTGAAAGCACTACACGAGTTTGCGCCCAGCATGTATGTTTTCAAGTCTTTTGTATAAGTCTGCCTCTATAGTGGTTTTCTTTGACCTTAAAGCCTTGTCAACCATCCTATATGCTGCATCGAGACTTGATGTCAATCTGCCTCTACTACGCAAATGTCTAGTAATTAGTTATAAGGTTTTACTATTTTCCCTCATTTCCAATTTTAGTTTGTAGTGTATGTGAGTATCATTCTTACTCCGACTGTTAAGAGAAACCAATTTATAGTCGTTAAATATGATAAATGGAATGAATGATGGTGTCATTTTAAAAACACTCTTCTCTATAGGCGTAAGCATTCTCGCTCTTAGAGTCGTAAAGAAGAAATGCCGTGTCTATCAGTATGTTATGCGATTTATTTTCTGCCACGCGCTTCTAGTGCAATCTAGTTGACATACAGACATTGCCTACCACTCGCGAGGGTCGACCGGTAGTGTAAGGAGTAAGTGATGATTTCCGCTTATTCTGTACCCTTTGCCTGGTGAGGACAGATCCTGACTAATTTTAAATATAAATGAACACTAGCTTCCAAG
Expression: 9.76E+04

B7: Bat dicibavirus (nucleic acid)
DNA: GTATAGCACCGGAATGGTATTTTACTACTCCAAGTATACGTACTAGGAGTTAAACCCTGTAATTTACAGGGGATTTAGTGACTTTTATCCGTAAAAGTCGATTGGACGTTAATCGGTAACGAGGCCAAGTACCGTGAACCAATTTAAAAACGTATTTTCTCATGTGGTAGAACCAACTTGGAAATAGCATGGCATATAGGTTGTTTAGGG
Expression: 7.43E+04

B8: Boone cardiovirus 1 (nucleic acid, listed as Cardiovirus sp.)
DNA: TACGATCGCTGTACATTCCACTACTGCCAATTAGCTCCCCCTTCCCGTTGCTCCCCTCTATAAGGAGAGCCTTCTCTTGCAAAGGTGAAGCCTTCACCCCCGGTCGAAGCCGCTTGGAATAAGACAGGGTTATTTTCTCCTCTCCTCGGCGCTTGCCTCTTCTAAGCTGAATAGGTTCTATCTATTCAGGCGGATGGTCTGGTCCGTTCCTTCTTGGACAGAGTGTGTATCTGGGTTTTCCGGATCTCGACCACACACTCACCAGAGCTCAGGAGTGATTAAGTCAAGGCCCGATCTGCGGCGAAAAGGAAATGAAGTATTTTGCAGCTGTAGCGACCTCTCAAGGCCAGCGGATTTCCCCACCTGGTGACAGGTGCCTCTGGGGCCAAAAGCCACGTGTTAATAGCACCCTTGAGAGCGGTGGTACCCCACCACCCTGCAAATTATGGATTTGACTTAGTAACTAAAAGATTGACTTGGCATACCTCAACCTGAGCGGCGGCTAAGGATGCCCTGAAGGTACCCGTGTTGAAATCGCTTCGGCGACCATGGATCTGATCAGGGGCCCTGCCTGGAGTGGTTCTATCCCACACAGCGTAGGGTTAAAAAACGTCTAACCGCCCCACAAAGACCCCGGCAGGGATGCCGGTTTCCTTTTTACCAATTCTTGACACT
Expression: 2.62E+06
